# Laboratory results as given in paper PMC10920075 (Nature structural & molecular biology, 2023).
# B1: DNA polymerase γ accessory subunit PolγB (natural protein, human, UniProt Q9UHN1 26-485, looked up)
# chain: DAGQPELLTERSSPKGGHVKSHAELEGNGEHPEAPGSGEGSEALLEICQRRHFLSGSKQQLSRDSLLSGCHPGFGPLGVELRKNLAAEWWTSVVVFREQVFPVDALHHKPGPLLPGDSAFRLVSAETLREILQDKELSKEQLVAFLENVLKTSGKLRENLLHGALEHYVNCLDLVNKRLPYGLAQIGVCFHPVFDTKQIRNGVKSIGEKTEASLVWFTPPRTSNQWLDFWLRHRLQWWRKFAMSPSNFSSSDCQDEEGRKGNKLYYNFPWGKELIETLWNLGDHELLHMYPGNVSKLHGRDGRKNVVPCVLSVNGDLDRGMLAYLYDSFQLTENSFTRKKNLHRKVLKLHPCLAPIKVALDVGRGPTLELRQVCQGLFNELLENGISVWPGYLETMQSSLEQLYSKYDEMSILFTVLVTETTLENGLIHLRSRDTTMKEMMHISKLKDFLIKYISSAKNV
# Molecular target: the molecule itself
# Test: cryo-EM structure
protein,measurement,value
B1,stoichiometry N,2
